From patent US20180282719A1 (published 2018) come the findings set out here.

A value given as a limit tells only on which side of the number the result lay.

For assay [1], the target named is T1, recombinant soluble human IL-6 receptor (SR344) (human, UniProt P08887 20-344, biotinylated (sites not given) where immobilized via streptavidin or used in phage ELISA).
T1 construct: also called soluble IL-6 receptor; membrane-type IL-6 receptor (when biotinylated and immobilized on the chip)
T1 sequence (looked up): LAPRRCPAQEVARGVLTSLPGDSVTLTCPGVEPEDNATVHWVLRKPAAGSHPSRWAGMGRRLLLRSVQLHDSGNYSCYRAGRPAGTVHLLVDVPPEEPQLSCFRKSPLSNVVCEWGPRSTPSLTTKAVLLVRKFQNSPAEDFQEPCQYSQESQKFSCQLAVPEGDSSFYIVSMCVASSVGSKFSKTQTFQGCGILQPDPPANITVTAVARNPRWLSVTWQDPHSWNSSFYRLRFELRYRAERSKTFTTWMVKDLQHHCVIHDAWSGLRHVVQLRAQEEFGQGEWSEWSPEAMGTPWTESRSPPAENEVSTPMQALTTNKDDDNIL
Put plainly: SPR Biacore T100, antibody on protein A/G chip, SR344 analyte, 37 C. How it is done:
(§1) Kinetic analyses of antigen-antibody reactions at pH 5.8 and pH 7.4 were carried out using a Biacore™ T100 surface plasmon resonance system (GE Healthcare) on the four antibodies: humanized PM1 antibody (WT) and H3pI/L73, CLH5/L73, and H170/L82 produced in Examples 2 and 4 (buffer: 10 mM MES (pH 7.4 or pH 5.8), 150 mM NaCl, and 0.05% TWEEN® 20 (polyoxyethelene sorbitan monolaurate)). Various antibodies were bound onto a sensor chip immobilized with recomb-protein A/G (Pierce) by amine coupling. SR344 adjusted to concentrations of 9.8 to 400 nM was injected to the chip as an analyte. […] All the measurements were carried out at 37° C. Association rate constants kₐ (1/Ms) and dissociation rate constants kd (1/s) were calculated using Biacore T100™ Evaluation Software (GE Healthcare), and dissociation constants KD (M) were calculated on the basis of those values (Table 5). Moreover, the ratio of the affinities at pH 5.8 and pH 7.4 were calculated for each clone to evaluate pH-dependent binding. All the measurements were carried out at 37° C.
For orientation: In SPR one partner is held on a chip, and binding of the other changes the refractive index at the surface.

Assay [2] addresses T1, recombinant soluble human IL-6 receptor …. Kind of assay: SPR Biacore T100, integrated RU of SR344 bound over ten cycles, 37 C. The protocol: The produced pH-dependent binding clones described above were analyzed using a Biacore T100™ surface plasmon resonance system (GE Healthcare) for their ability to bind to the antigen SR344 multiple times at pH 5.8 and pH 7.4. More specifically, the analysis was carried out as follows. All the measurements were carried out at 37° C. First, the sample antibodies described above were bound onto a recomb-protein A/G (Pierce)-immobilized sensor chip by amine-coupling, where the mobile phase buffer was 10 mM MES (pH 5.8), 150 mM NaCl, and 0.05% TWEEN® 20 (polyoxyethelene sorbitan monolaurate) (step 1). SR344 adjusted to a concentration of about 40 nM was injected as an analyte for 3 minutes at pH 7.4 and allowed to bind (the buffer for injected SR344 was 10 mM MES (pH 7.4), 150 mM NaCl, and 0.05% TWEEN® 20 (polyoxyethelene sorbitan monolaurate)) (step 2). Subsequently, the injection of SR344 was discontinued and a mobile phase of pH 5.8 was allowed to flow for about 70 seconds to expose the antibody/SR344 complex under acidic conditions (step 3). Ten sets of this binding (step 2)/acidity exposure (step 3) process were continuously repeated to observe the sensorgram in real-time, which is shown in FIG. 11. […] In the 10-set repetition of the binding (step 2) and acidic exposure (step 3), almost all H170/L82 and CLH5/L73 antibodies were able to bind to new antigens in each set. […]

Assay [3] has the same target. Kind of assay: SPR Biacore T100, antibody on protein A/G chip, SR344 analyte, pH 5.8, 37 C. How it is done:
as §1

Assay [4] shares this target. Kind of assay: SPR Biacore T100, antibody on protein A/G chip, SR344 analyte, pH 7.4, 37 C. How it is done: as §1
Assay [5] shares this target. Put plainly: SPR Biacore T100, antibody on protein A/G chip, SR344 analyte, 37 C, ratio of pH 5.8 to pH 7.4. How it is done:
as §1

Assay [6] shares this target. Put plainly: SPR Biacore T100, biotinylated SR344 on streptavidin chip (model of membrane IL-6 receptor), antibody 0.5 ug/mL as analyte, 37 C. How it is done:
(§2) The binding to membrane IL-6 receptor was evaluated by evaluating the binding to the IL-6 receptor immobilized onto a sensor chip. SR344 was biotinylated according to a method known to persons skilled in the art, and the biotinylated SR344 was immobilized on the sensor chip via streptavidin by utilizing the affinity between streptavidin and biotin. All the measurements were carried out at 37° C., and the mobile phase buffer contained 10 mM MES (pH 5.8), 150 mM NaCl and 0.05% TWEEN® 20 (polyoxyethelene sorbitan monolaurate). The pH-dependent binding clones were injected therein under the condition of pH 7.4 and allowed to bind to SR344 (injection sample buffer: 10 mM MES (pH 7.4), 150 mM NaCl, 0.05% TWEEN® 20 (polyoxyethelene sorbitan monolaurate)), and the pH-dependent dissociation of each clone at the mobile phase pH of 5.8 was observed (FIG. 10).
(§3) The dissociation rate […]) at pH 5.8 was calculated using Biacore T100™ Evaluation Software (GE Healthcare) by fitting only the dissociation phase at pH 5.8, where 0.5 μg/mL of the sample was bound in 10 mM MES (pH 7.4), 150 mM NaCl, and 0.05% TWEEN® 20 (polyoxyethelene sorbitan monolaurate), and dissociated in 10 mM MES (pH 5.8), 150 mM NaCl, and 0.05% TWEEN® 20 (polyoxyethelene sorbitan monolaurate). Similarly, the dissociation rate (kd(1/s)) at pH 7.4 was calculated using Biacore T100™ Evaluation Software (GE Healthcare) by fitting only the dissociation phase at pH 7.4, where 0.5 μg/mL of the sample was bound in 10 mM MES (pH 7.4), 150 mM NaCl, and 0.05% TWEEN® 20 (polyoxyethelene sorbitan monolaurate), and dissociated in 10 mM MES (pH 7.4), 150 mM NaCl, and 0.05% TWEEN® 20 (polyoxyethelene sorbitan monolaurate).

For assay [7] the target is unchanged. Kind of assay: SPR Biacore T100, biotinylated SR344 on streptavidin chip (model of membrane IL-6 receptor), antibody 0.5 ug/mL as analyte, bound at pH 7.4, dissociation at pH 5.8, 37 C. The protocol: as §2, §3
Assay [8] shares this target. Put plainly: SPR Biacore T100, biotinylated SR344 on streptavidin chip (model of membrane IL-6 receptor), antibody 0.5 ug/mL as analyte, bound at pH 7.4, dissociation at pH 7.4, 37 C. How it is done:
as §2, §3

The target of assay [9] is T2, soluble mouse IL-31 receptor (mouse, UniProt Q8K5B1 19-499).
T2 sequence (looked up): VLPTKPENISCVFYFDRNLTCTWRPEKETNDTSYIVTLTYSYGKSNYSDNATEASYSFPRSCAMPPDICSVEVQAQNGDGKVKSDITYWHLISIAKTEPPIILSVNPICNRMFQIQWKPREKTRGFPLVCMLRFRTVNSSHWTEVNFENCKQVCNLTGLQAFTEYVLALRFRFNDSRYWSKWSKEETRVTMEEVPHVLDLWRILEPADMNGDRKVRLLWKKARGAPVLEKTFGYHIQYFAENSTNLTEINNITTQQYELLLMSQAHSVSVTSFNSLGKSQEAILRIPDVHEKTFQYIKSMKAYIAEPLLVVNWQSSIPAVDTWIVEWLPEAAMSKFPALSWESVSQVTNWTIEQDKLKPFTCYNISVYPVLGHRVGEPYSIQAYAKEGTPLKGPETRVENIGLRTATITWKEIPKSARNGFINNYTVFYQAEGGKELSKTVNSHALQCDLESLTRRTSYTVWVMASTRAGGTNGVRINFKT
Put plainly: SPR Biacore T100, antibody on protein A/G chip, soluble mouse IL-31 receptor analyte, pH 7.4, 25 C. How it is done: (§4) Kinetic analysis of antigen-antibody reactions at pH 5.5 and pH 7.4 was carried out using a Biacore T100™ surface plasmon resonance system (GE Healthcare) for the two types of antibodies prepared as mentioned above: Anti-IL31R wild type and Anti-IL31R clone 1 (buffer: DPBS(−) (pH 7.4 or pH 5.5), 150 mM NaCl, 0.01% TWEEN® 20 (polyoxyethelene sorbitan monolaurate), 0.02% NaN₃). The antibodies were bound to a sensor chip on which recomb-protein A/G (Pierce) was immobilized by amine coupling, and then the soluble mouse IL-31 receptor (prepared according to the method described in WO 2007/142325) adjusted to an appropriate concentration was injected therein as an analyte. All the measurements were carried out at 25° C. Association rate constants kₐ (1/Ms) and dissociation rate constants kd (1/s) were calculated using Biacore T100™ Evaluation Software (GE Healthcare), and dissociation constants KD (M) were calculated based on those values (Table 16). Furthermore, the ratio of affinity at pH 5.5 and pH 7.4 was calculated for each clone to evaluate the pH-dependent binding.

Assay [10] deals with T2, soluble mouse IL-31 receptor. Kind of assay: SPR Biacore T100, antibody on protein A/G chip, soluble mouse IL-31 receptor analyte, 25 C, ratio of pH 5.5 to pH 7.4. The protocol:
as §4

For assay [11] the target is unchanged. Put plainly: SPR Biacore T100, antibody on protein A/G chip, soluble mouse IL-31 receptor analyte, 25 C. How it is done:
as §4

Assay [12] shares this target. Kind of assay: SPR Biacore T100, antibody on protein A/G chip, soluble mouse IL-31 receptor analyte, pH 5.5, 25 C. The protocol:
as §4

B1: CLH5/L73 (antibody, IgG1, V domains shown)
VH: QVQLQESGPGLVKPSETLSLTCAVSGYSISHDHAWSWVRQPPGEGLEWIGHISYSGITNYNPHLKGRVTISRDTSKNQFSLKLSSVTAADTAAYYCARFLARITAHDHWGEGTLVTVSS
VL: DIQMTQSPSSLSASVGDSVTITCQASQHISSHLNWYQQKPGKAPELLIYYGSHLHSGVPSRFSGSGSGTDFTFTISSLEAEDAATYYCGQGNRLPYTFGQGTKVEIE
notes: expressed and purified as IgG
Usually Kd stands for the concentration at which binding is half-saturated. One may read the koff as the rate constant with which the complex falls apart. A word on the kon: it is a measure of how fast the partners come together. In the case of B1, the “pH-dependent binding (affinity ratio) relative to WT” value in assay [1] was more than 15 fold. Also, the “total amount of antigen bound over ten cycles relative to WT” value in assay [2] is approximately 4 fold. For the same molecule, the Kd stood at 74 nM in [3] and 1.1 nM in [4]. Further, the koff in assay [3] was 0.028 s⁻¹; in assay [4] it was 0.00079 s⁻¹; in assay [7], 0.00567 s⁻¹; in assay [8], 0.00104 s⁻¹. Also, the on-rate (kon) in [3] came to 380000 M⁻¹ s⁻¹; in assay [4], 710000 M⁻¹ s⁻¹. Besides, the “KD (pH 5.8)/KD (pH 7.4)” value in assay [5] stood at 66.1. In [6], the “kd ratio pH 5.8/pH 7.4” value worked out at 5.5.

B2: Anti-IL31R wild type (antibody, human IgG1, lambda, V domains shown)
VH: not shown
VL: LPVLTQPPSVSVAPGQTARITCGGNNIGSKTVYWYQQEPGQAPVLVVYDDTDRPAGIPERFSGANSGNTATLTISRVEAGDEADYYCQVWDSSTDHGVFGGGTKLTVLG
notes: Antibody of WO 2007/142325, rebuilt and tested here; also called anti-IL-31 receptor antibody including the H chain (WT) and L chain (WT)
With B2, in assay [9], the dissociation constant Kd is 23 nM, the off-rate constant (koff) was 0.0034 s⁻¹ and the kon amounted to 140000 M⁻¹ s⁻¹. In addition, the “KD (pH 5.5)/KD (pH 7.4)” value in assay [10] amounted to 3.2.

B3: Anti-IL31R clone 1 (antibody, human IgG1, lambda, V domains shown)
VH: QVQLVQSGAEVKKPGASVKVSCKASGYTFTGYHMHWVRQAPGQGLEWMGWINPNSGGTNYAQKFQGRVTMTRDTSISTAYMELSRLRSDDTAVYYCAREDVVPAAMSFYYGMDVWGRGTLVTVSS
VL: LPVLTQPPSVSVAPGQTARITCGGNNIGSKTVYWYQQEPGQAPVLVVYDDTDRPAGIPERFSGANSGNTATLTISRVEAGDEADYYCQVWDSSTDHGVFGGGTKLTVLG
notes: H chain (c1) / L chain (WT)
Turning to B3, the “pH-dependent binding ability relative to WT” value in assay [11] was approximately 300 fold. For the same molecule, in assay [12], the dissociation constant (Kd) turned out to be 22000 nM, the koff amounted to 0.024 s⁻¹ and the kon came to 1100 M⁻¹ s⁻¹. In addition, in [9], the affinity, expressed as Kd, was 22 nM; the koff came to 0.0033 s⁻¹; the kon stood at 170000 M⁻¹ s⁻¹. For the same molecule, the “KD (pH 5.5)/KD (pH 7.4)” value in [10] was 1000.
